Experiment [1] deals with Bacillus subtilis ATCC 6633. The experiment is described as follows: Growth promotion test: colonies on TSA-LT agar plates treated with hydrogen peroxide. The format is cell-based. Conditions: for Colonies on agar: no catalase, hydrogen peroxide as in Example 3; for Colonies on gamma-irradiated agar / Colonies on agar plates: 300 μl 1% hydrogen peroxide (100 ppm in medium); for Colonies on gamma-irradiated agar: gamma-irradiated 20.5 kGy; for Colonies on agar plates: not irradiated.

Experiment [2] relates to Bacillus subtilis ATCC 6633. Nature of the experiment: Agar diffusion test: inhibition by hydrogen peroxide on TSA-LT agar plates with additives. It is filed as cell-based. Conditions: 10 μl on paper disc; for Inhibition on gamma-irradiated agar plates: gamma-irradiated 20.5 kGy; for Inhibition on agar plates: not irradiated. (In general: In agar diffusion tests the substance spreads into inoculated agar from a disc or well.)

The conditions of experiment [3]: 8000 international units of catalase per plate; cited from earlier work.
Where [4] appears, read: sodium pyruvate 2.00 g/l together with sodium thiosulfate 0.05 g/l.
Where [5] appears, read: sodium pyruvate 2.00 g/l together with sodium thiosulfate 0.05 g/l, 2% hydrogen peroxide.
Where [6] appears, read: sodium pyruvate 2.00 g/l together with sodium thiosulfate 0.05 g/l, 5% hydrogen peroxide.
Setting [7] is: sodium pyruvate 2.00 g/l together with sodium thiosulfate 0.05 g/l, 8% hydrogen peroxide.
[8] abbreviates: sodium pyruvate 2.00 g/l together with sodium thiosulfate 0.05 g/l, 10% hydrogen peroxide.
The mark [9] stands for this setting: 80 U/plate, 2% hydrogen peroxide.
Where [10] appears, read: 80 U/plate, 5% hydrogen peroxide.
Where [11] appears, read: 80 U/plate, 8% hydrogen peroxide.
The mark [12] stands for this setting: 80 U/plate, 10% hydrogen peroxide.
Where [13] appears, read: 150 U/plate, 2% hydrogen peroxide.
The mark [14] stands for this setting: 150 U/plate, 5% hydrogen peroxide.
[15] abbreviates: 150 U/plate, 8% hydrogen peroxide.
Setting [16] is: 150 U/plate, 10% hydrogen peroxide.
[17] abbreviates: 300 U/plate, 2% hydrogen peroxide.
Setting [18] is: 300 U/plate, 5% hydrogen peroxide.
The mark [19] stands for this setting: 300 U/plate, 8% hydrogen peroxide.
The mark [20] stands for this setting: 300 U/plate, 10% hydrogen peroxide.

The text below walks through data of patent US9951306B2, “Catalase in growth media” (EUCODIS BIOSCIENCE GMBH, priority 2012, dated 2018).

As to `CC(=O)C(=O)[O-].[Na+]` [Sodium pyruvate, reference compound], the “growth in agar plates with hydrogen peroxide” value in experiment [1] (0.2 g/l sodium pyruvate and 0.005 g/l sodium thiosulfate without catalase) is given as “did not support growth”. Besides, the Colonies on agar is reported as 0 CFU in experiment [1] (sodium pyruvate 0.20 g/l with sodium thiosulfate 0.005 g/l) and 125 CFU in experiment [1] (sodium pyruvate 2.00 g/l with sodium thiosulfate 0.05 g/l). Besides, the “Colonies on gamma-irradiated agar” value in experiment [1] (setting [4]) is listed as 229 CFU. For the same molecule, in experiment [1] (setting [4]), the “Colonies on agar plates” value worked out at 161 CFU. Moreover, the “Inhibition on gamma-irradiated agar plates” value is on record as 0 mm in experiment [2] (setting [5]), 1 mm in experiment [2] (setting [6]), 2 mm in experiment [2] (setting [7]) and 3 mm in experiment [2] (setting [8]). The “Inhibition on agar plates” value in experiment [2] (setting [5]) is 0 mm; in experiment [2] (setting [6]), 1 mm; in experiment [2] (setting [7]), 2 mm; in experiment [2] (setting [8]), 2.5 mm.

On to catalase, for which, in experiment [3], the recovery is recorded as 60%.

B1: Catalase from bovine liver: Catalase prepared from commercial product C9322 (Sigma), dissolved in 0.1 M potassium phosphate pH 7.0; comparator (protein, UniProt P00432 2-527, looked up)
Catalase: ADNRDPASDQMKHWKEQRAAQKPDVLTTGGGNPVGDKLNSLTVGPRGPLLVQDVVFTDEMAHFDRERIPERVVHAKGAGAFGYFEVTHDITRYSKAKVFEHIGKRTPIAVRFSTVAGESGSADTVRDPRGFAVKFYTEDGNWDLVGNNTPIFFIRDALLFPSFIHSQKRNPQTHLKDPDMVWDFWSLRPESLHQVSFLFSDRGIPDGHRHMNGYGSHTFKLVNANGEAVYCKFHYKTDQGIKNLSVEDAARLAHEDPDYGLRDLFNAIATGNYPSWTLYIQVMTFSEAEIFPFNPFDLTKVWPHGDYPLIPVGKLVLNRNPVNYFAEVEQLAFDPSNMPPGIEPSPDKMLQGRLFAYPDTHRHRLGPNYLQIPVNCPYRARVANYQRDGPMCMMDNQGGAPNYYPNSFSAPEHQPSALEHRTHFSGDVQRFNSANDDNVTQVRTFYLKVLNEEQRKRLCENIAGHLKDAQLFIQKKAVKNFSDVHPEYGSRIQALLDKYNEEKPKNAVHTYVQHGSHLSAREKANL
Take B1: the “Colonies on gamma-irradiated agar” value in experiment [1] (80 U/plate), in experiment [1] (150 U/plate) and in experiment [1] (300 U/plate) was 0 CFU each time. Further, the “Colonies on agar plates” value in experiment [1] (80 U/plate), in experiment [1] (150 U/plate) and in experiment [1] (300 U/plate) was 0 CFU each time. Also, the “recovery of the applied colony forming units” value in experiment [1] (highest tested concentration of 300 U/plate, not irradiated medium) amounted to 0%. The “Inhibition on gamma-irradiated agar plates” value turned out to be 3.5 mm in experiment [2] (setting [9]); 7 mm in experiment [2] (setting [10]); 8 mm in experiment [2] (setting [11]); 8.5 mm in experiment [2] (setting [12]); 2 mm in experiment [2] (setting [13]); 6 mm in experiment [2] (setting [14]). Moreover, the “Inhibition on gamma-irradiated agar plates” value is reported as 7.5 mm in experiment [2] (setting [15]); 8 mm in experiment [2] (setting [16]); 1.5 mm in experiment [2] (setting [17]); 5.5 mm in experiment [2] (setting [18]); 6.5 mm in experiment [2] (setting [19]); 7.5 mm in experiment [2] (setting [20]). Also, the “Inhibition on agar plates” value in experiment [2] (setting [9]) is 1 mm; in experiment [2] (setting [10]) it was 5 mm; in experiment [2] (setting [11]) it was 6 mm; in experiment [2] (setting [12]), 7 mm; in experiment [2] (setting [13]), 0.5 mm; in experiment [2] (setting [14]), 4 mm. Besides, the “Inhibition on agar plates” value in experiment [2] (setting [15]) is listed as 5 mm; in experiment [2] (setting [16]) it was 6 mm; in experiment [2] (setting [17]), 0 mm; in experiment [2] (setting [18]) it was 2 mm; in experiment [2] (setting [19]) it was 4 mm; in experiment [2] (setting [20]) it was 4.5 mm.
